Measurements as given in article PMC7586803, “Click‐Chemistry (CuAAC) Trimerization of an αvβ6 Integrin Targeting Ga‐68‐Peptide: Enhanced Contrast for in‐Vivo PET Imaging of Human Lung Adenocarcinoma Xenografts” (Chembiochem, 2020).
Read-outs that look alike come from different tables or passages of the source.

Columns and labels:
αvβ6 integrin [1] = biological target: T1, αvβ6 integrin (Homo sapiens, UniProt P06756+P18564); settings: activity of the internal standard to which measured IC50 values were referenced; cited from earlier work
Source text: (§1) Table 1 Integrin affinities (expressed as 50 % inhibition concentrations, IC50), IC50‐based selectivities, and octanol/PBS distribution coefficients (log D 7.4).

αvβ8 integrin [2] = biological target: T2, αvβ8 integrin (Homo sapiens, UniProt P06756+P26012); settings: activity of the internal standard to which measured IC50 values were referenced; cited from earlier work
Source text: as §1

physchem = format: physicochemical; settings: pH 7.4
Experimental: To determine the n‐octanol/PBS distribution coefficients (log D 7.4), 650 μL octan‐1‐ol and 650 μL phosphate‐buffered saline (PBS, pH 7.4) were combined in a 1.5 mL Eppendorf tube. Approximately 0.5 MBq of the radiolabeled compound was added and vortexed for 2 min at 2850 rpm using a Vortex Genie2 (Scientific Industries). The samples were centrifuged (11 500 g, 10 min), after which 100 μL of the organic phase and 10 μL of the aqueous phase were taken out and the activities of the aliquots were quantified in a γ‐counter.

in vivo = settings: female, CB17 SCID, mouse, iv, 120 pmol, total radioactivity
Experimental: (§2) Mice were used for biodistribution or PET when tumors had grown to a diameter of 8–10 mm (4–5 weeks after inoculation). β6 Integrin immunohistochemistry (IHC) was performed as described before.37
(§3) For biodistribution studies, the mice were administered approximately 120 pmol (3–8 MBq, depending on radiolabeling yield and decay) of the radiopharmaceuticals into the tail vein and allowed to wake up with access to food and water. […] Animals were sacrificed 90 min after injection, blood was immediately taken from the heart with a syringe, and the organs of interest (heart, lung, liver, spleen, pancreas, stomach (empty), small intestine (empty), large intestine (empty), kidneys, adrenals, muscle, tongue, tumor, tail) were dissected. The activity in weighed tissue samples was quantified by using a γ‐counter. Injected dose per gram tissue (%ID/g) was calculated from the organ weights and counted activities.

αvβ6 integrin [3] = biological target: T1, αvβ6 integrin; test: Solid-phase binding assay (ELISA on immobilized integrins), αvβ6
Experimental: (§4) After washing the plates with PBS‐T buffer (phosphate‐buffered saline/Tween20), free binding sites were blocked by incubation with TS‐B buffer (Tris‐saline/BSA). […] Surface‐bound integrin was detected by subsequent incubation with a specific primary antibody and a secondary peroxidase‐labeled antibody (anti‐mouse IgG‐POD, Sigma–Aldrich). After addition of the dye SeramunBlau (Seramun Diagnostic, Heidesee, Germany) and quenching of the reaction by addition of 3 M H2SO4, the absorbance at λ=450 nm was measured with a microplate reader (Tecan Genius, Männedorf, Switzerland). The IC50 value for each compound was determined in duplicate and the inhibition curves were analyzed by using OriginPro 9.0 software.

αvβ8 integrin [4] = biological target: T2, αvβ8 integrin; test: Solid-phase binding assay (ELISA on immobilized integrins), αvβ8; settings: LAP(TGF-β)-coated plates, non-radioactive 69/71Ga complex, determined in duplicate, referenced to internal standard […], read-out: IC50 (95 % confidence interval) αvβ8
Experimental: as §4

[5] = tested on: H2009 xenografted SCID mice; test: in vivo; settings: mouse
Experimental: as §2, §3

[6] = %ID/g Tumor H2009 (tumor uptake)
[7] = tumor/organ ratio Heart (myocard)
[8] = tumor/organ ratio Large intestine (empty)
[9] = tumor/organ ratio Small intestine (empty)
[10] = tumor/organ ratio Stomach (empty)

T1 sequence (P06756 31-992 limits assumed): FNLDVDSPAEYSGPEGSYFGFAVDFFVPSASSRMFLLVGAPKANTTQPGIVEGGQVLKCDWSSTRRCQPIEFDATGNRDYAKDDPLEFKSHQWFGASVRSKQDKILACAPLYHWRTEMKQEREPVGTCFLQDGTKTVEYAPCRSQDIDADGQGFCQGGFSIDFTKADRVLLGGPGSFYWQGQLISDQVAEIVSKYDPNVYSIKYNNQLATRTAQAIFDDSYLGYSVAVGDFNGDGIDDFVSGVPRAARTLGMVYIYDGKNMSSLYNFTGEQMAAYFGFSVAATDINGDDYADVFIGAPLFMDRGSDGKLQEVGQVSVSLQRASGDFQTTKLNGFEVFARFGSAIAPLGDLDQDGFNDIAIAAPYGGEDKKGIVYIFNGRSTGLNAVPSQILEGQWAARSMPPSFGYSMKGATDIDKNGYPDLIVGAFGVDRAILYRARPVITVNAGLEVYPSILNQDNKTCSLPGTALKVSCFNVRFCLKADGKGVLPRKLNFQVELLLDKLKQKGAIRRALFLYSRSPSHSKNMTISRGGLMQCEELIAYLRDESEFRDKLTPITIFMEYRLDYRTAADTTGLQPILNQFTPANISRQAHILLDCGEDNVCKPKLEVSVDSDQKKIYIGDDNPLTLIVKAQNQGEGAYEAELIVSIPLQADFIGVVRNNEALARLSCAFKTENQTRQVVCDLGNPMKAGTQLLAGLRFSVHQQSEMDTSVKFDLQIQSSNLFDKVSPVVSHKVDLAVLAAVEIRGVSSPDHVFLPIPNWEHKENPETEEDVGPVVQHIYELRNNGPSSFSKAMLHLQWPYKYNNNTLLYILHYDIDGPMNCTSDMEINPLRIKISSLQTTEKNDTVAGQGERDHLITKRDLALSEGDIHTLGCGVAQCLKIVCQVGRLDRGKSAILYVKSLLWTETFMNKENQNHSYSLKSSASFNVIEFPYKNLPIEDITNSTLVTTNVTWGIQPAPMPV
T1 sequence (P18564 22-707 limits assumed): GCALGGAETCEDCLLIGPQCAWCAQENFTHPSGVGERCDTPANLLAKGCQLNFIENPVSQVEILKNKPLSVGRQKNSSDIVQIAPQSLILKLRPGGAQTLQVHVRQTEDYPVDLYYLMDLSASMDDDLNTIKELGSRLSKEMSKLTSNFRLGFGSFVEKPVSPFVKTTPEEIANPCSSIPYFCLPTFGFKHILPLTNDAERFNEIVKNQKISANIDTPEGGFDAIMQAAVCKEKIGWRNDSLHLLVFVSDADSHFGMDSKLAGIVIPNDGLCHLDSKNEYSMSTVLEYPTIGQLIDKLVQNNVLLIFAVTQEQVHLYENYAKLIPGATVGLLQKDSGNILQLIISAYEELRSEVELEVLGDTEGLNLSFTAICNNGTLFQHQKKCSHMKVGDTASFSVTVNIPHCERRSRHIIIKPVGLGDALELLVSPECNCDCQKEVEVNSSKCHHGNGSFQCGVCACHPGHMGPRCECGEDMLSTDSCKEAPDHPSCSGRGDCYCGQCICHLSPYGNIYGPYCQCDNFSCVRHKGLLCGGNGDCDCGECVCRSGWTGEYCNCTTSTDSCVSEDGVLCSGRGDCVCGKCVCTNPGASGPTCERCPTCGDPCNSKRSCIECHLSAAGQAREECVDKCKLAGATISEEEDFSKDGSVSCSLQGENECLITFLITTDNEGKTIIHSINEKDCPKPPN
T2 sequence (P06756 31-992 limits assumed): as the sequence (P06756 31-992 limits assumed) above
T2 sequence (P26012 43-684 limits assumed): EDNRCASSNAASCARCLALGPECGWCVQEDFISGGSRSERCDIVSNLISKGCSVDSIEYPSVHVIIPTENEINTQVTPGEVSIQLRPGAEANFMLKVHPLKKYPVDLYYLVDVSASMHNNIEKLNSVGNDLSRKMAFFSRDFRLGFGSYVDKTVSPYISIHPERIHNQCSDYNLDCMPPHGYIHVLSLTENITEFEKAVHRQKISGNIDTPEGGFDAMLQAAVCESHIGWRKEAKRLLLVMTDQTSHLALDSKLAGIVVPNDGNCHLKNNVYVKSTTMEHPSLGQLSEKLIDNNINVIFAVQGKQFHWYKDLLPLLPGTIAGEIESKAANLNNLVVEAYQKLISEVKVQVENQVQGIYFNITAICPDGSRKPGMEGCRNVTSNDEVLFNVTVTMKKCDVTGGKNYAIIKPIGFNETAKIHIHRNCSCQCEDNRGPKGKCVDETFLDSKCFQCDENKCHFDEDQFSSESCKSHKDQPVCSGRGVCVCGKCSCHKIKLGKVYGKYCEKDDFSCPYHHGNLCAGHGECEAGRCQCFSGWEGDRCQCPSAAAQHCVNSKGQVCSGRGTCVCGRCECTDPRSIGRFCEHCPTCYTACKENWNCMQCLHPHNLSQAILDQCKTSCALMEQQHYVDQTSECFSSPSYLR

RTDLDSLRT
IC50 (αvβ6 integrin [1]): 33 nM
IC50 (αvβ8 integrin [2]): 100 nM

N=C(N)NCCC[C@@H]1NC(=O)CC[C@@H](C(=O)NCCCC[C@H](NC(=O)c2ccc(NC(=O)CN3CCN(CC(=O)O)CCN(CC(=O)O)CC3)cc2)C(N)=O)NC(=O)[C@H](C2CCCCC2)NC(=O)[C@H](CC(=O)O)NC(=O)CNC1=O [^68Ga‐NOTA‐SDM17, metal not drawn]
logD (physchem): -3.91 ± 0.07
tissue uptake at 1.5 h (in vivo; %ID/g Adrenals): 0.28 ± 0.09 %ID/g
tissue uptake at 1.5 h (in vivo; %ID/g Blood): 0.64 ± 0.05 %ID/g
tissue uptake at 1.5 h (in vivo; %ID/g Heart (myocard)): 0.2 ± 0.03 %ID/g
tissue uptake at 1.5 h (in vivo; %ID/g Kidneys): 3.74 ± 0.73 %ID/g
tissue uptake at 1.5 h (in vivo; %ID/g Large intestine (empty)): 0.22 ± 0.03 %ID/g
tissue uptake at 1.5 h (in vivo; %ID/g Liver): 0.33 ± 0.04 %ID/g
tissue uptake at 1.5 h (in vivo; %ID/g Lung): 0.47 ± 0.03 %ID/g
tissue uptake at 1.5 h (in vivo; %ID/g Muscle): 0.07 ± 0.01 %ID/g
tissue uptake at 1.5 h (in vivo; %ID/g Pancreas): 0.15 ± 0.02 %ID/g
tissue uptake at 1.5 h (in vivo; %ID/g Small intestine (empty)): 0.22 ± 0.01 %ID/g
tissue uptake at 1.5 h (in vivo; %ID/g Spleen): 0.32 ± 0.06 %ID/g
tissue uptake at 1.5 h (in vivo; %ID/g Stomach (empty)): 0.34 ± 0.06 %ID/g
tissue uptake at 1.5 h (in vivo; %ID/g Tongue): 0.28 ± 0.03 %ID/g
tissue uptake at 1.5 h (in vivo; [6]): 0.66 ± 0.03 %ID/g
tissue to tissue ratio at 1.5 h (in vivo; tumor/organ ratio Adrenals): 2.5 ± 0.7
tissue to tissue ratio at 1.5 h (in vivo; tumor/organ ratio Blood): 1 ± 0.1
tissue to tissue ratio at 1.5 h (in vivo; [7]): 3.3 ± 0.6
tissue to tissue ratio at 1.5 h (in vivo; tumor/organ ratio Kidneys): 0.2
tissue to tissue ratio at 1.5 h (in vivo; [8]): 3.1 ± 0.4
tissue to tissue ratio at 1.5 h (in vivo; tumor/organ ratio Liver): 2 ± 0.3
tissue to tissue ratio at 1.5 h (in vivo; tumor/organ ratio Lung): 1.4 ± 0.1
tissue to tissue ratio at 1.5 h (in vivo; tumor/organ ratio Muscle): 9.7 ± 0.7
tissue to tissue ratio at 1.5 h (in vivo; tumor/organ ratio Pancreas): 4.4 ± 0.8
tissue to tissue ratio at 1.5 h (in vivo; [9]): 3 ± 0.1
tissue to tissue ratio at 1.5 h (in vivo; tumor/organ ratio Spleen): 2.1 ± 0.4
tissue to tissue ratio at 1.5 h (in vivo; [10]): 2 ± 0.4
tissue to tissue ratio at 1.5 h (in vivo; tumor/organ ratio Tongue): 2.4 ± 0.3

N=C(N)NCCC[C@@H]1NC(=O)CC[C@@H](C(=O)NCCCC[C@H](NC(=O)CCc2cn(CCCNC(=O)CCP(=O)(O)CN3CCN(CP(=O)(O)CCC(=O)NCCCn4cc(CCC(=O)N[C@@H](CCCCNC(=O)[C@@H]5CCC(=O)N[C@@H](CCCNC(=N)N)C(=O)NCC(=O)N[C@@H](CC(=O)O)C(=O)N[C@@H](C6CCCCC6)C(=O)N5)C(N)=O)nn4)CCN(CP(=O)(O)CCC(=O)NCCCn4cc(CCC(=O)N[C@@H](CCCCNC(=O)[C@@H]5CCC(=O)N[C@@H](CCCNC(=N)N)C(=O)NCC(=O)N[C@@H](CC(=O)O)C(=O)N[C@@H](C6CCCCC6)C(=O)N5)C(N)=O)nn4)CC3)nn2)C(N)=O)NC(=O)[C@H](C2CCCCC2)NC(=O)[C@H](CC(=O)O)NC(=O)CNC1=O [^68Ga‐TRAP(SDM17)3, metal not drawn]
IC50 (αvβ6 integrin [3]; ELISA, LAP(TGF-β)-coated plates, non-radioactive 69/71Ga complex, determined in duplicate, referenced to internal standard […], read-out: IC50 (95 % confidence interval) αvβ6): 0.26 nM
Selectivity for αvβ6 over αvβ8 (αvβ6 integrin [3]; IC50-based selectivity factor (IC50 αvβ8 / IC50 αvβ6)): 662
IC50 (αvβ8 integrin [4]): 172 nM
logD (physchem): -4.08 ± 0.07
tissue uptake at 1.5 h (in vivo; %ID/g Adrenals): 0.16 ± 0.02 %ID/g
tissue uptake at 1.5 h (in vivo; %ID/g Blood): 0.19 ± 0.05 %ID/g
tissue uptake at 1.5 h (in vivo; %ID/g Heart (myocard)): 0.1 ± 0.03 %ID/g
tissue uptake at 1.5 h (in vivo; %ID/g Kidneys): 21.8 ± 2.7 %ID/g
tissue uptake at 1.5 h (in vivo; %ID/g Large intestine (empty)): 0.41 ± 0.09 %ID/g
tissue uptake at 1.5 h (in vivo; %ID/g Liver): 0.34 ± 0.21 %ID/g
tissue uptake at 1.5 h (in vivo; %ID/g Lung): 0.71 ± 0.15 %ID/g
tissue uptake at 1.5 h (in vivo; %ID/g Muscle): 0.1 ± 0.02 %ID/g
tissue uptake at 1.5 h (in vivo; %ID/g Pancreas): 0.07 ± 0.01 %ID/g
tissue uptake at 1.5 h (in vivo; %ID/g Small intestine (empty)): 0.31 ± 0.08 %ID/g
tissue uptake at 1.5 h (in vivo; %ID/g Spleen): 0.58 ± 0.11 %ID/g
tissue uptake at 1.5 h (in vivo; %ID/g Stomach (empty)): 1.04 ± 0.22 %ID/g
tissue uptake at 1.5 h (in vivo; %ID/g Tongue): 0.35 ± 0.09 %ID/g
tissue uptake at 1.5 h (in vivo; [6]): 2.06 ± 0.34 %ID/g
tissue to tissue ratio at 1.5 h (in vivo; tumor/organ ratio Adrenals): 12.5 ± 1.6
tissue to tissue ratio at 1.5 h (in vivo; tumor/organ ratio Blood): 11.2 ± 1.9
tissue to tissue ratio at 1.5 h (in vivo; [7]): 21.7 ± 3
tissue to tissue ratio at 1.5 h (in vivo; tumor/organ ratio Kidneys): 0.1
tissue to tissue ratio at 1.5 h (in vivo; [8]): 5.1 ± 1.2
tissue to tissue ratio at 1.5 h (in vivo; tumor/organ ratio Liver): 8.7 ± 5.2
tissue to tissue ratio at 1.5 h (in vivo; tumor/organ ratio Lung): 3 ± 0.4
tissue to tissue ratio at 1.5 h (in vivo; tumor/organ ratio Muscle): 22.3 ± 6.6
tissue to tissue ratio at 1.5 h (in vivo; tumor/organ ratio Pancreas): 29.7 ± 3
tissue to tissue ratio at 1.5 h (in vivo; [9]): 7 ± 1.7
tissue to tissue ratio at 1.5 h (in vivo; tumor/organ ratio Spleen): 3.6 ± 0.6
tissue to tissue ratio at 1.5 h (in vivo; [10]): 2 ± 0.4
tissue to tissue ratio at 1.5 h (in vivo; tumor/organ ratio Tongue): 6.2 ± 1.8
higher tumor uptake than monomer [5]: threefold
